Where no end group is shown, it is not given here.
B1: Phage-3455 (peptide)
peptide: IEALCVPDWMCRGF
notes: also called Peptide-180 library clone; not shown: pIII filament protein of the bacteriophage
B2: Phage-3431 (peptide)
peptide: EDILCKPVWMCIGF
notes: Peptide-180 library clone, tested as clonal phage supernatant; not shown: fused to the pIII filament protein of the bacteriophage
B3: Phage-3425 (peptide)
peptide: LEIMCRPEWMCSGF
notes: as for B2
B4: Phage-3433 (peptide)
peptide: IEPHCVPAWMCTGF
notes: as for B2
B5: Phage-3456 (peptide)
peptide: HIMQCKPAWMCSGL
notes: as for B1
B6: Phage-3428 (peptide)
peptide: TSLRCVPEWMCSGF
notes: as for B2
B7: Phage-3485 (peptide)
peptide: EAIRCVPVWMCQGF
notes: tested as crude clonal phage supernatant
B8: Phage-3422 (peptide)
peptide: LSTLCIPQWMCTGL
notes: as for B2
B9: Phage-3458 (peptide)
peptide: VVAQCVPRWMCDGF
notes: as for B1
B10: Phage-3486 (peptide)
peptide: YSQMCKPAWMCNGF
notes: as for B7
B11: Phage-3490 (peptide)
peptide: VNMICKPAWMCKGF
modifications: cysteine pairing not given here; also: fused to pIII of bacteriophage, pIII and linker not given here
notes: Peptide-180 library clone, tested as clonal phage supernatant with the peptide fused to pIII of the bacteriophage
B12: Phage-3450 (peptide)
peptide: PLKLCIPEWMCVEL
notes: as for B1
B13: Phage-3461 (peptide)
peptide: TELLCTPRWMCEGF
notes: as for B1
B14: Phage-3426 (peptide)
peptide: MTPRCIPSWMCFGM
notes: as for B2
B15: Phage-3487 (peptide)
peptide: PVAVCKPAWMCEGF
notes: as for B7
B16: Phage-3483 (peptide)
peptide: ITPACVPEWMCLGL
notes: as for B7
B17: Phage-3451 (peptide)
peptide: TINICKPQWMCIGF
notes: as for B1
B18: Phage-3481 (peptide)
peptide: DTIACRPEWMCTGF
notes: as for B7
B19: Phage-3476 (peptide)
peptide: VSPMCRPAWMCEGL
notes: as for B7
B20: Phage-3449 (peptide)
peptide: EDVRCVPAWMCNGF
modifications: cysteine pairing not given here; also: fused to pIII of bacteriophage
notes: as for B1
B21: Phage-3432 (peptide)
peptide: SFLRCEPMWMCLGF
notes: as for B2
B22: Phage-3459 (peptide)
peptide: SPPLCVPVWMCHGF
notes: as for B1
B23: Phage-3488 (peptide)
peptide: ITQMCKPAWMCVGL
notes: as for B7
B24: Phage-3462 (peptide)
peptide: VLRSCVPEWMCSGF
notes: as for B1
B25: Phage-3420 (peptide)
peptide: NDVKCIPEWMCVGF
notes: as for B2
B26: Phage-3430 (peptide)
peptide: VEKMCKPVWMCNGF
notes: as for B2
B27: Phage-3424 (peptide)
peptide: IDQICKPAWMCSGF
notes: as for B2
B28: Phage-3480 (peptide)
peptide: EFIKCEPKWMCQGF
notes: as for B7
B29: Phage-3484 (peptide)
peptide: AERMCVPSWMCQGL
notes: as for B7
B30: Phage-3482 (peptide)
peptide: YFKHCVPQWMCEGF
notes: as for B7
B31: Phage-3454 (peptide)
peptide: VTMRCTPDWMCVGF
notes: as for B1
B32: Phage-3429 (peptide)
peptide: SLPICKPEWMCVGL
notes: as for B2
B33: Phage-3479 (peptide)
peptide: MDARCVPSWMCIGV
notes: as for B7
B34: Phage-3457 (peptide)
peptide: VEKMCRPLWMCHGF
notes: as for B1
B35: Phage-3427 (peptide)
peptide: SSMLCIPTWMCGGF
notes: as for B2
B36: Phage-3478 (peptide)
peptide: SDKFCVPEWMCEWI
notes: as for B7
B37: Phage-3477 (peptide)
peptide: VWKTCVPEWMCVGY
notes: as for B7
B38: Phage-3460 (peptide)
peptide: NAIMCRPAWMCSGF
notes: as for B1
B39: Phage-3421 (peptide)
peptide: TDPLCIPEWMCQGM
notes: as for B2
B40: Phage-3423 (peptide)
peptide: YFQMCAPRWMCEGF
modifications: cysteine pairing not given here; also: fused to pIII of bacteriophage
notes: as for B2
B41: Phage-3452 (peptide)
peptide: MERFCIPSWMCEGL
notes: as for B1
B42: Phage-3453 (peptide)
peptide: FEFRCTPEWMCRGF
notes: as for B1
B43: Phage-3489 (peptide)
peptide: LDRMCVPLWMCEGF
notes: as for B7

How the values were obtained:
PSMA Fab (006 PSMA Fab) [1] = target: T1, PSMA Fab (006 PSMA Fab) (Fab biotinylated for capture on neutravidin plates (site not given)); test: clonal phage ELISA; biotinylated PSMA Fab on neutravidin plate, wells pre-incubated with PSMA antigen as competitor; anti-M13-HRP detection
T1 construct: also called Anti-PSMA Fab; anti-PSMA Fab

PSMA Fab (006 PSMA Fab) [2] = target: T1, PSMA Fab (006 PSMA Fab); test: clonal phage ELISA; biotinylated PSMA Fab on neutravidin plate, blocking buffer alone; anti-M13-HRP detection;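 note: clonal phage applied as crude supernatants to wells preincubated with blocking buffer, binding read by ELISA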
Description: (§1) Clonal phage were harvested as crude supernatants and screened via standard ELISAs. […] Prior to the addition of clonal phage. wells were incubated with blocking buffer and PSMA antigen or blocking buffer alone. Without washing or aspirating, clonal phage supernatants were then added to the wells and incubated for a short time. Wells were then washed followed by detection of bound phage using a horse radish conjugated anti-M13 antibody.

PSMA Fab (006 PSMA Fab) [3] = target: T2, PSMA Fab (006 PSMA Fab) (biotinylated (site not stated)); test: clonal phage ELISA on captured anti-PSMA Fab pre-incubated with PSMA antigen (competitor: PSMA)
T2 construct: That the same Fab was used in the panning ELISA is inferred; also called Anti-PSMA Fab; anti-PSMA Fab

PSMA Fab (006 PSMA Fab) [4] = target: T2, PSMA Fab (006 PSMA Fab); test: clonal phage ELISA on biotinylated anti-PSMA Fab captured on neutravidin, anti-M13-HRP detection
Description: as §1

PSMA Fab [5] = target: T3, PSMA Fab (biotinylated (site not stated)); test: clonal phage ELISA on PSMA Fab pre-incubated with PSMA antigen as competitor
T3 construct: Biotinylated PSMA Fab captured on neutravidin coated plates in the phage ELISA; also called Anti-PSMA Fab; 006 PSMA Fab

PSMA Fab [6] = target: T3, PSMA Fab; test: clonal phage ELISA, biotinylated PSMA Fab on neutravidin plate, anti-M13 HRP detection;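 note: crude clonal phage supernatants added to wells pretreated with blocking buffer either with or without PSMA antigen, bound phage read after washing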
Description: as §1

Anti-PSMA Fab [7] = target: T4, Anti-PSMA Fab; test: clonal phage ELISA on biotinylated PSMA Fab captured on neutravidin plate, anti-M13 HRP detection, blocking buffer alone
T4 construct: Biotinylated and captured on neutravidin coated plates in the phage ELISA; also called 006 PSMA Fab
Description: as §1

Anti-PSMA Fab [8] = target: T4, Anti-PSMA Fab; test: clonal phage ELISA on captured PSMA Fab pre-incubated with PSMA antigen as competitor, anti-M13 HRP detection;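 note: crude clonal phage supernatants tested by ELISA, wells first treated with blocking buffer plus PSMA antigen, bound phage read out via HRP-linked anti-M13 antibody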
Description: as §1

Row | Binder | Phage binding ELISA signal, Anti-PSMA Fab in presence of PSMA antigen (PSMA Fab (006 PSMA Fab) [1]) | Phage binding ELISA signal, Anti-PSMA Fab (PSMA Fab (006 PSMA Fab) [2]) | phage binding ELISA signal in the presence of PSMA (PSMA Fab (006 PSMA Fab) [3]) | phage binding ELISA signal (PSMA Fab (006 PSMA Fab) [4]) | Phage binding ELISA signal, Anti-PSMA Fab with PSMA antigen (PSMA Fab [5]) | Phage binding ELISA signal, Anti-PSMA Fab (PSMA Fab [6]) | also measured
1 | B1 | 0.0663 | 1.74 |  |  |  |  | 
2 | B2 |  |  | 0.06 | 1.77 |  |  | 
3 | B3 |  |  | 0.0888 | 1.77 |  |  | 
4 | B4 |  |  | 0.0805 | 1.76 |  |  | 
5 | B5 | 0.0654 | 1.74 |  |  |  |  | 
6 | B6 |  |  | 0.0814 | 1.77 |  |  | 
7 | B7 |  |  |  |  | 0.0989 | 1.72 | 
8 | B8 |  |  | 0.0813 | 1.78 |  |  | 
9 | B9 | 0.103 | 1.74 |  |  |  |  | 
10 | B10 |  |  |  |  | 0.101 | 1.72 | 
11 | B11 |  |  |  |  |  |  | Phage binding ELISA signal, Anti-PSMA Fab (Anti-PSMA Fab [7]): 1.71; Phage binding ELISA signal, Anti-PSMA Fab with PSMA antigen (Anti-PSMA Fab [8]): 0.0872
12 | B12 | 0.0747 | 1.75 |  |  |  |  | 
13 | B13 | 0.163 | 1.74 |  |  |  |  | 
14 | B14 |  |  | 0.086 | 1.77 |  |  | 
15 | B15 |  |  |  |  | 0.0982 | 1.72 | 
16 | B16 |  |  |  |  | 0.0774 | 1.72 | 
17 | B17 | 0.0893 | 1.74 |  |  |  |  | 
18 | B18 |  |  |  |  | 0.0607 | 1.72 | 
19 | B19 |  |  |  |  | 0.0909 | 1.73 | 
20 | B20 | 0.0724 | 1.75 |  |  |  |  | 
21 | B21 |  |  | 0.0816 | 1.77 |  |  | 
22 | B22 | 0.148 | 1.74 |  |  |  |  | 

Row | Binder | Phage binding ELISA signal, Anti-PSMA Fab in presence of PSMA antigen (PSMA Fab (006 PSMA Fab) [1]) | Phage binding ELISA signal, Anti-PSMA Fab (PSMA Fab (006 PSMA Fab) [2]) | phage binding ELISA signal in the presence of PSMA (PSMA Fab (006 PSMA Fab) [3]) | phage binding ELISA signal (PSMA Fab (006 PSMA Fab) [4]) | Phage binding ELISA signal, Anti-PSMA Fab with PSMA antigen (PSMA Fab [5]) | Phage binding ELISA signal, Anti-PSMA Fab (PSMA Fab [6]) | also measured
23 | B23 |  |  |  |  | 0.123 | 1.72 | 
24 | B24 | 0.075 | 1.74 |  |  |  |  | 
25 | B25 |  |  | 0.0849 | 1.78 |  |  | 
26 | B26 |  |  | 0.115 | 1.77 |  |  | 
27 | B27 |  |  | 0.0628 | 1.78 |  |  | 
28 | B28 |  |  |  |  | 0.0826 | 1.72 | 
29 | B29 |  |  |  |  | 0.0943 | 1.72 | 
30 | B30 |  |  |  |  | 0.146 | 1.72 | 
31 | B31 | 0.0737 | 1.74 |  |  |  |  | 
32 | B32 |  |  | 0.0892 | 1.77 |  |  | 
33 | B33 |  |  |  |  | 0.48 | 1.72 | 
34 | B34 | 0.0944 | 1.74 |  |  |  |  | 
35 | B35 |  |  | 0.0536 | 1.77 |  |  | 
36 | B36 |  |  |  |  | 0.0588 | 1.72 | 
37 | B37 |  |  |  |  | 0.112 | 1.73 | 
38 | B38 | 0.0847 | 1.74 |  |  |  |  | 
39 | B39 |  |  | 0.0726 | 1.78 |  |  | 
40 | B40 |  |  | 0.0849 | 1.78 |  |  | 
41 | B41 | 0.0682 | 1.74 |  |  |  |  | 
42 | B42 | 0.0706 | 1.74 |  |  |  |  | 
43 | B43 |  |  |  |  | 0.0991 | 1.71 | 
